# ± gives the uncertainty stated by the source.
# Test: self-splicing fitness, log relative to wild type (ln ratio); higher = more splicing; Tetrahymena group I intron in knt gene, E. coli kanamycin selection, DiMSum; sequences stand for … in CUCUCU…GGAGGGAAAAGUUAUCAGGCAUGCACCUGGUAGCUAGUCUUUAAACCAAUAGAUUGCAUCGGUUUAAAAGGCAAGACCGUCAAAUUGCGGGAAAGGGGUCAACAGCCGUUCAGUACCAAGUCUCAGGGGAAACUUUGAGAUGGCCUUGCAAAGGGUAUGGUAAUAAGCUGACGGACAUGGUCCUAACCACGCAGCCAAGUCCUAAGUCAACAGAUCUUCUGUUGAUAUGGAUGCAGUUCACAGACUAAAUGUCGGUCGGGGAAGAUGUAUUCUUCUCAUAAGAUAUAGUCGGACCUCUCCUUAAUGGGAGCUAGCGGAUGAAGUGAUGCAACACUGGAGCCGCUGGGAACUAAUUUGUAUGCGAAAGUAUAUUGAUUAGUUUUGGAGUACUCGUGGUCG
# In short: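 A randomised library covering all eight P1ex-region intron nucleotides was built with the intron in the knt kanamycin-resistance gene on pET-22b(+) and held in E. coli BL21(DE3). Cells were grown overnight at 37°C or 30°C on LB agar, with or without 25 μg/mL kanamycin, plus 100 μg/mL carbenicillin, 50 μM IPTG and 0.2% rhamnose, and pooled colonies were amplicon-sequenced on an Illumina HiSeq 2500. DiMSum fitness is the error-weighted combination of wild-type-normalised replicate fold changes, kanamycin versus none.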
Sequence,self-splicing fitness (ln) (30 °C),self-splicing fitness (ln) (37 °C)
CCGGAGCAAUAUUACGUGUU,-3.46 ± 0.24,-2.01 ± 0.19
CAAUAGCAAUAUUACGCUAG,-2.49 ± 0.15,-1.86 ± 0.19
ACGUAGCAAUAUUACGGCAU,-1.31 ± 0.1,-0.11 ± 0.099
GUCCAGCAAUAUUACGUCAA,-1.23 ± 0.12,-1.99 ± 0.14
GUAUAGCAAUAUUACGAUCC,-0.716 ± 0.18,1.03 ± 0.22
CGGAAGCAAUAUUACGUCAU,-3.78 ± 0.16,-3.33 ± 0.2
GUCAAGCAAUAUUACGUGUA,-1.8 ± 0.062,-0.887 ± 0.072
GCACAGCAAUAUUACGGUCA,-0.62 ± 0.08,-0.276 ± 0.074
AGCGAGCAAUAUUACGAAGU,-3.59 ± 0.29,-1.57 ± 0.21
CGUCAGCAAUAUUACGGGUG,-1.9 ± 0.091,-0.977 ± 0.11
UCAUAGCAAUAUUACGGGCA,-1.29 ± 0.11,-0.42 ± 0.1
UGGCAGCAAUAUUACGUCCG,-0.782 ± 0.095,-0.304 ± 0.13
AACGAGCAAUAUUACGGCGG,-2.67 ± 0.14,-1.13 ± 0.13
CCAGAGCAAUAUUACGCUAC,–,-1.72 ± 0.33
CGGAAGCAAUAUUACGUUUU,-3.64 ± 0.23,-2.95 ± 0.18
UGAGAGCAAUAUUACGAUUG,-2.57 ± 0.27,-1.14 ± 0.27
AUCUAGCAAUAUUACGACAC,-1.02 ± 0.11,0.13 ± 0.13
GAUGAGCAAUAUUACGAAUU,-3.84 ± 0.47,–
CAGAAGCAAUAUUACGGUCA,-1.54 ± 0.13,-1.15 ± 0.097
GUUGAGCAAUAUUACGCACA,-1.83 ± 0.14,-0.945 ± 0.15
CUCUAGCAAUAUUACGGCAC,-2.61 ± 0.26,–
CAUGAGCAAUAUUACGUCAA,-4.04 ± 0.33,-2.64 ± 0.33
CCGGAGCAAUAUUACGCGCG,-2.44 ± 0.2,-0.558 ± 0.22
GCGAAGCAAUAUUACGAGCC,-3.17 ± 0.23,–
UGACAGCAAUAUUACGUCAC,-3.74 ± 0.17,-3.16 ± 0.23

Sequence,self-splicing fitness (ln) (30 °C),self-splicing fitness (ln) (37 °C)
AGGCAGCAAUAUUACGAUAC,-2.06 ± 0.27,-1.42 ± 0.26
ACGAAGCAAUAUUACGGUCU,-0.57 ± 0.073,-0.225 ± 0.097
CGGGAGCAAUAUUACGACUU,-1.58 ± 0.37,-1.83 ± 0.49
AAAAAGCAAUAUUACGCUAA,-2.36 ± 0.15,-1.35 ± 0.13
GCUAAGCAAUAUUACGCUGU,–,-3.18 ± 0.47
CUCAAGCAAUAUUACGCGCC,-1.95 ± 0.32,-1.15 ± 0.26
UCCGAGCAAUAUUACGACGU,-1.05 ± 0.07,0.0752 ± 0.11
UAGCAGCAAUAUUACGGCUG,-3.72 ± 0.35,-2.64 ± 0.28
AGGAAGCAAUAUUACGCGCA,-0.555 ± 0.13,0.268 ± 0.16
AUAAAGCAAUAUUACGACGC,0.18 ± 0.093,0.349 ± 0.14
CGAUAGCAAUAUUACGGAUG,-0.777 ± 0.058,0.18 ± 0.07
UCCUAGCAAUAUUACGCGAC,-3.46 ± 0.32,-1.49 ± 0.31
ACCGAGCAAUAUUACGCUAA,-3.28 ± 0.32,-2.05 ± 0.28
CGUCAGCAAUAUUACGUAAU,-2.93 ± 0.17,-1.2 ± 0.13
AGGAAGCAAUAUUACGGUAG,-3.37 ± 0.36,-1.6 ± 0.31
GACUAGCAAUAUUACGGUCC,–,-1.49 ± 0.42
AAAAAGCAAUAUUACGGACA,-0.0577 ± 0.11,-0.0474 ± 0.12
AGACAGCAAUAUUACGGCGU,-0.937 ± 0.057,-0.314 ± 0.065
CAUAAGCAAUAUUACGACCA,–,-2.1 ± 0.36
CACUAGCAAUAUUACGUACG,-0.239 ± 0.071,0.494 ± 0.083
GAUCAGCAAUAUUACGCCGA,-0.954 ± 0.12,-0.727 ± 0.11
UCUGAGCAAUAUUACGUUAA,-3.47 ± 0.29,-0.512 ± 0.15
GACAAGCAAUAUUACGAAAC,-2.29 ± 0.18,-2.5 ± 0.17
UAAUAGCAAUAUUACGUAUC,–,-2.68 ± 0.48
GCUCAGCAAUAUUACGGACG,-1.11 ± 0.079,-0.474 ± 0.11
